The Human Domainome abundance scans (Beltran et al. 2025)
± gives the uncertainty stated by the source.

B1: SAM and SH3 domain-containing protein 1, residues 630 to 700; numbered along this chain, O94885 (parent)
chain: GRPPQPKSVEDLLDRINLKEHMPTFLFNGYEDLDTFKLLEEEDLDELNIRDPEHRAVLLTAVELLQEYDSN

Variants of: B1
Experiment: abundance fitness (aPCA) (normalised: wild type 0, dead -1); higher = more abundant; growth selection in yeast, the domain comes from the species named
Conditions: Homo sapiens
D32W gave an abundance fitness of -0.75 ± 0.069. E41M showed an abundance fitness of -0.578 ± 0.073. E41V gave an abundance fitness of -0.495 ± 0.056. Work on E41L yielded an abundance fitness of -0.635 ± 0.05. E41D gave an abundance fitness of -0.419 ± 0.075. E41W gave an abundance fitness of -0.567 ± 0.091. With E41I the abundance fitness was -0.588 ± 0.072. E67C showed an abundance fitness of -0.3 ± 0.057. With E67I the abundance fitness was -0.492 ± 0.057. Variant E67A has an abundance fitness of -0.082 ± 0.048. With E67W the abundance fitness was -0.438 ± 0.06. T35Y gave an abundance fitness of -0.587 ± 0.064. Work on T35C yielded an abundance fitness of -0.206 ± 0.053. Work on T35V yielded an abundance fitness of -0.492 ± 0.056. With T35A the abundance fitness was 0.067 ± 0.042. For T35R, the abundance fitness was 0.135 ± 0.037. D69A showed an abundance fitness of -0.386 ± 0.047. D69Y showed an abundance fitness of -0.644 ± 0.066. Variant D69R has an abundance fitness of -0.531 ± 0.058. For D69K, the abundance fitness was -0.29 ± 0.055. Variant D69C has an abundance fitness of -0.479 ± 0.094. D69I gave an abundance fitness of -0.836 ± 0.09. Variant D69W has an abundance fitness of -0.752 ± 0.093. For H21K, the abundance fitness was -0.712 ± 0.075. H21F gave an abundance fitness of -0.134 ± 0.046. L59Y showed an abundance fitness of -0.823 ± 0.072. With L59C the abundance fitness was -0.678 ± 0.064. L59I showed an abundance fitness of -0.525 ± 0.064. Variant D45N has an abundance fitness of -0.272 ± 0.045. With D45A the abundance fitness was -0.622 ± 0.057. Variant D45W has an abundance fitness of -0.499 ± 0.064. In the case of D45T, the abundance fitness is reported as -0.38 ± 0.042. For D45H, the abundance fitness was -0.538 ± 0.053. For D45S, the abundance fitness was -0.544 ± 0.04. S8N showed an abundance fitness of -0.305 ± 0.053. With S8C the abundance fitness was -0.701 ± 0.087. S8D gave an abundance fitness of -0.316 ± 0.076. With S8V the abundance fitness was -1.02 ± 0.1. Variant S8L has an abundance fitness of -0.818 ± 0.067. With E10N the abundance fitness was -0.53 ± 0.061. Variant E10C has an abundance fitness of -0.463 ± 0.071. E10Y showed an abundance fitness of -0.418 ± 0.055. For E10P, the abundance fitness was -0.357 ± 0.05. K37S gave an abundance fitness of -0.337 ± 0.045. With K37A the abundance fitness was -0.226 ± 0.047. With K37F the abundance fitness was -0.946 ± 0.11. Variant K37I has an abundance fitness of -0.848 ± 0.093. Variant K37Q has an abundance fitness of -0.478 ± 0.073. K37T gave an abundance fitness of -0.615 ± 0.062. Variant A56C has an abundance fitness of -0.272 ± 0.046. Work on A56G yielded an abundance fitness of -0.337 ± 0.05. A56M gave an abundance fitness of -0.213 ± 0.046. Variant L58I has an abundance fitness of 0.167 ± 0.048. Work on L58C yielded an abundance fitness of -0.82 ± 0.1. In the case of L58G, the abundance fitness is reported as -0.667 ± 0.068. L58N showed an abundance fitness of -0.51 ± 0.075. Work on L58T yielded an abundance fitness of -0.72 ± 0.07. Variant L58H has an abundance fitness of -0.53 ± 0.07. For L58Y, the abundance fitness was -0.905 ± 0.11. With L58K the abundance fitness was -0.588 ± 0.085. Work on L58Q yielded an abundance fitness of -0.468 ± 0.073. Y30A gave an abundance fitness of -0.92 ± 0.076. Y30H showed an abundance fitness of -0.737 ± 0.071. Variant Y30I has an abundance fitness of 0.042 ± 0.043. In the case of Y30R, the abundance fitness is reported as -0.891 ± 0.068. Y30D gave an abundance fitness of -0.705 ± 0.077. With Y30M the abundance fitness was -0.568 ± 0.074. Variant P3Y has an abundance fitness of 0.005 ± 0.047. Variant P3F has an abundance fitness of 0.044 ± 0.048. In the case of P3N, the abundance fitness is reported as -0.038 ± 0.049. With P3A the abundance fitness was -0.115 ± 0.043. Work on P3H yielded an abundance fitness of -0.094 ± 0.047. With P3V the abundance fitness was 0.035 ± 0.042. Variant P23T has an abundance fitness of -0.019 ± 0.04. Work on P23Q yielded an abundance fitness of -0.017 ± 0.056. With P23M the abundance fitness was -0.268 ± 0.061. In the case of P23H, the abundance fitness is reported as -0.243 ± 0.052. For P23K, the abundance fitness was 0.043 ± 0.053. With P23V the abundance fitness was -0.433 ± 0.049. P23R showed an abundance fitness of -0.225 ± 0.045. Variant P23N has an abundance fitness of 0.102 ± 0.043. In the case of E42F, the abundance fitness is reported as -0.743 ± 0.067. Work on E42H yielded an abundance fitness of 0.055 ± 0.041. E42G gave an abundance fitness of 0.013 ± 0.049.
